This note sets out measurements from publication PMC11489063, “Study of sulfoglycolysis in Enterococcus gilvus reveals a widespread bifurcated pathway for dihydroxypropanesulfonate degradation” (iScience, 2024).

In data set [1] the test system is NC(=O)c1ccc[n+]([C@@H]2O[C@H](COP(=O)(O)OP(=O)(O)OC[C@H]3O[C@@H](n4cnc5c(N)ncnc54)[C@H](O)[C@@H]3O)[C@@H](O)[C@H]2O)c1. Kind of data set: purified protein. Conditions: apparent, oxidation direction, 40 mM 3-HPS, 50 mM CAPSO pH 9.5, RT.
Data set [2] has as its system O=S(=O)(O)CCCO. Kind of data set: purified protein. The conditions noted are these: apparent, oxidation direction, 4 mM NAD+, 50 mM CAPSO pH 9.5, RT.
The target of data set [3] is T1, HpfX (EgHpfX), 3-sulfopropionaldehyde dehydrogenase (Enterococcus gilvus, UniProt R2XKF7).
T1 construct: gene I592_01329
T1 sequence (R2XKF7 1-455): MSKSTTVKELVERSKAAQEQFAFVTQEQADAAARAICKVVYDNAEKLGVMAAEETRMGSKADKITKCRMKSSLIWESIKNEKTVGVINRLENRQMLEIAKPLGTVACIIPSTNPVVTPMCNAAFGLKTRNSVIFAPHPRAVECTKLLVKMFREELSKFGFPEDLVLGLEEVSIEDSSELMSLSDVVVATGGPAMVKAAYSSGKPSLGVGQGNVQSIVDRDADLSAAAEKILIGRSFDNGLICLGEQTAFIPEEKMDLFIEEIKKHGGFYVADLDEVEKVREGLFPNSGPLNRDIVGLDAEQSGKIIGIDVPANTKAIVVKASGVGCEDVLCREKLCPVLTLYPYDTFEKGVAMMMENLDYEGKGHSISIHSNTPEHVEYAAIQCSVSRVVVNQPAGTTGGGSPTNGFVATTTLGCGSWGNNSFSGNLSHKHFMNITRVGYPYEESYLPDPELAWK
Kind of data set: spectrophotometric NADH consumption, A340, HpfYZ-coupled. It is filed as biochemical. Conditions: reduction of 3-SPC made in situ by HpfYZ; 0.4 mM NADH, 10 mM 3-SP, 2 mM ATP, 0.4 mM CoA, 10 mM MgCl2, Tris pH 7.5, RT.

Data set [4] concerns the target T1, HpfX (EgHpfX), 3-sulfopropionaldehyde dehydrogenase. Kind of data set: LC-MS of product 3-SPC, HpfD-coupled. The class given is biochemical. The conditions noted are these: 3-SPA made in situ by HpfD from 40 mM 3-HPS; 4 mM NAD+, 0.5 mM CoA, CAPSO pH 9.5, RT.
Substrate in data set [5]: Nc1ncnc2c1ncn2[C@@H]1O[C@H](COP(=O)(O)OP(=O)(O)OP(=O)(O)O)[C@@H](O)[C@H]1O
Kind of data set: PK-LDH coupled spectrophotometric assay, A340. It is filed as biochemical, Enterococcus gilvus. The conditions noted are these: apparent, 2 mM 3-SP, 0.4 mM CoA, 10 mM MgCl2, 50 mM KCl, Tris-HCl pH 7.5, RT.

Substrate in data set [6]: O=C(O)CCS(=O)(=O)O
Kind of data set: PK-LDH coupled spectrophotometric assay, A340. It is filed as biochemical, Enterococcus gilvus. The conditions noted are these: apparent, 2 mM ATP, 0.4 mM CoA, 10 mM MgCl2, 50 mM KCl, Tris-HCl pH 7.5, RT.

Substrate in data set [7]: CC(C)(COP(=O)(O)OP(=O)(O)OC[C@H]1O[C@@H](n2cnc3c(N)ncnc32)[C@H](O)[C@@H]1OP(=O)(O)O)[C@@H](O)C(=O)NCCC(=O)NCCS
Kind of data set: PK-LDH coupled spectrophotometric assay, A340. Conditions: apparent, 2 mM 3-SP, 2 mM ATP, 10 mM MgCl2, 50 mM KCl, Tris-HCl pH 7.5, RT. The class given is biochemical, Enterococcus gilvus.

For “HpfD (EgHpfD), 3-sulfopropionaldehyde reductase (Enterococcus gilvus ATCC BAA-350)”, in data set [1], the Km stood at 640 ± 90 µM and the kcat is 20.87 ± 0.84 s⁻¹. In data set [2], the Km is 4970 ± 570 µM and the kcat amounted to 15.30 ± 0.37 s⁻¹.

With `NC(=O)C1=CN([C@@H]2O[C@H](COP(=O)(O)OP(=O)(O)OC[C@H]3O[C@@H](n4cnc5c(N)ncnc54)[C@H](O)[C@@H]3O)[C@@H](O)[C@H]2O)C=CC1` [NADH], the “spectrophotometric NADH consumption, A340, HpfYZ-coupled” value in data set [3] is recorded as “indicating reduction of 3-SPC accompanied by the consumption of NADH”.

As to `O=CCCS(=O)(=O)O` [3-SPA], the “LC-MS of product 3-SPC, HpfD-coupled” value in data set [4] is “The ability of the HpfX to oxidize 3-SPA into 3-SPC was ascertained”.

B1: HpfYZ (EgHpfY / EgHpfZ), 3-sulfopropionate-CoA ligase (Enterococcus gilvus ATCC BAA-350) (protein)
chain 1: MDYLEIEGKAQLERFGIPINESILLTGDNIPEDIPYPCVLKGQILSGKRGKAGAVRVVKTRAELIEAKEIIEQIKINDQVMEGVIACGFLPIEEEYYLGMTLDVKNRAMIMLFTPFGGMDIEELAETDPEKLLRFDCTEGFNAEKFKKASTIFELPEKRLNLVVDIAEKLSEACFALDATTIEINPLALLKDESLMAIDAKLVIDDNALYRQGDYTILPRTVQEKSLQEIEAEQYDLTYVEVDPKGNIGTMAGGAGIGMATMDTVFHYGGRVNNFLDLGGGVTSEKTYQAMRILLENENTDYILINIFGGINNCADMAEGITRAYKESGISKTVVVKSRGFNQEQGWSMYKELGFPQAKYGTTDEAVQILLALKGAK
chain 2: MSILINQETELLIIGITGKQGRIHAKRTIESGAKLRAGVAPGKNGEMVEGIPVFESVEDARKEFPQIRAAMLLTPPRFVKDAAIQALQSGIELLVIITEFVPVLDTLEIVTKAKKLGAKVVGPNTIGVIAPGKSKLGIMPADIYGKGRIGIISRSGTLTHETASNLTFKGYGLSTCVGIGGDSIVGMDHADVLELFANDDETDAIVLIGEIGGTSEEMAAAKIKELNIQKPICAYIAGMHAPENKKMGHAGAIVSGNMGTVKSKVEALEDAGVTVCPTLGKIVEFMEKTNSQTNGKLRSLEPKVDASILQT
notes: N-terminal His6-TEV tagged HpfY co-expressed with untagged HpfZ in E. coli BL21(DE3), co-purified 1:1 (predicted heterodimer); codon-optimized genes
Regarding B1, the Km was 180 ± 140 µM in data set [5], 510 ± 70 µM in data set [6] and 110 ± 30 µM in data set [7]. Further, the results for the kcat in data set [5], in data set [6] and in data set [7] were 0.33 ± 0.01 s⁻¹, 0.38 ± 0.01 s⁻¹ and 0.45 ± 0.04 s⁻¹, respectively.

The Km is the substrate concentration at which the rate is half of its maximum. Broadly, the kcat is the maximal rate divided by the concentration of active sites.
